{
  "source": "patent US20200010547A1",
  "target": "CD30 on CD30+ lymphoma cell lines (UniProt P28908)",
  "sequence (P28908 19-595 limits assumed)": "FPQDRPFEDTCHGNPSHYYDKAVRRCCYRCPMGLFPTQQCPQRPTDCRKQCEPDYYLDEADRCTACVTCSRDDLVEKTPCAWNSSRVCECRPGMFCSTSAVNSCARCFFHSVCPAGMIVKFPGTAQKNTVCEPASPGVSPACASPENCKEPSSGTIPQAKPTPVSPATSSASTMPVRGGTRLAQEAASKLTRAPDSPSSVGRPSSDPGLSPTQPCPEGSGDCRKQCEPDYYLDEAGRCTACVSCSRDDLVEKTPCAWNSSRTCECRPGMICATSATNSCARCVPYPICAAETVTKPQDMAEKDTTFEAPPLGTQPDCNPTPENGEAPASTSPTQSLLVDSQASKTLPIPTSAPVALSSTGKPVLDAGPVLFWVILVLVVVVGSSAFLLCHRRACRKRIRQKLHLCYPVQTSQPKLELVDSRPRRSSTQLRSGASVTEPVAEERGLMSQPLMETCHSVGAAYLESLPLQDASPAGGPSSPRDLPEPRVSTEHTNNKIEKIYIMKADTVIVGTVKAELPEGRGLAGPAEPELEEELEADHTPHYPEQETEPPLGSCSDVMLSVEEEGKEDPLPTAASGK",
  "assay": "cell-based or functional assay",
  "data": [
    {"substance": "bispecific tetravalent CD30/CD16A tandem diabody AFM13 (bispecific antibody)", "values": [
      {"measurement": "specific lysis of CD30+ tumor cells by NK cells, 4-hour 51Cr release assay", "value": 0.001, "unit": "µg/mL"}
    ]}
  ]
}
